Test results from patent US20050014242.

Tests used:
[1] = system: CFEK2-prostasin-6×HIS (purified zymogen, not digested with EK)
[2] = system: PFEK1-neuropsin-6×HIS (purified zymogen, not digested with EK)
[3] = system: PFEK1-protease MH2-6×HIS (purified zymogen, not digested with EK)
[4] = system: PFEK1-protease O-6×HIS (purified zymogen, not digested with EK)
[5] = system: PFEK2-prostasin-6×HIS (purified zymogen, not digested with EK)
[6] = system: PFEK2-protease F-6×HIS (purified zymogen, not digested with EK)
PFEK2-protease F-6×HIS (purified zymogen, not digested with EK), sequence (chain, as listed by the source): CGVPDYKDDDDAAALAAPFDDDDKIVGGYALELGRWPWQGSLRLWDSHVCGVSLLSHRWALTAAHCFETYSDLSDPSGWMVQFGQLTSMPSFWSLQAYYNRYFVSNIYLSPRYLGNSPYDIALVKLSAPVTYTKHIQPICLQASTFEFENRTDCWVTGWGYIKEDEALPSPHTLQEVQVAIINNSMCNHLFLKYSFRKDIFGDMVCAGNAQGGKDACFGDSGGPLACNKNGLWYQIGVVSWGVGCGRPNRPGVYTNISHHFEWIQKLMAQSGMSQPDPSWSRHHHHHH

PFEK1-protease MH2-6×HIS (purified zymogen, not digested with EK), sequence (chain, as listed by the source): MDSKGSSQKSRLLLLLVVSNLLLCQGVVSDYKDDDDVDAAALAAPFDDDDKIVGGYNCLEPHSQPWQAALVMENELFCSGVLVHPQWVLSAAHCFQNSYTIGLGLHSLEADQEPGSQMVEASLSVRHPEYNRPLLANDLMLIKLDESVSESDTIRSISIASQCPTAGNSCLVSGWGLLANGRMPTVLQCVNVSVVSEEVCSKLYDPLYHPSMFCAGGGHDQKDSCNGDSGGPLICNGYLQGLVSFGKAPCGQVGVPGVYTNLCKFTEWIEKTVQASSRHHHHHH

enterokinase
cleavage of the zymogen (SDS-PAGE and anti-FLAG Western blot) [1]: quantitative cleavage of the expressed and purified zymogen to generate the processed and activated protease
cleavage of the zymogen (SDS-PAGE and anti-FLAG Western blot) [2]: quantitative cleavage of the expressed and purified zymogen to generate the processed and activated protease
cleavage of the zymogen (SDS-PAGE and anti-FLAG Western blot) [3]: quantitative cleavage of the expressed and purified zymogen to generate the processed and activated protease
cleavage of the zymogen (SDS-PAGE and anti-FLAG Western blot) [4]: quantitative cleavage of the expressed and purified zymogen to generate the processed and activated protease
cleavage of the zymogen (SDS-PAGE and anti-FLAG Western blot) [5]: quantitative cleavage of the expressed and purified zymogen to generate the processed and activated protease
cleavage of the zymogen (SDS-PAGE and anti-FLAG Western blot) [6]: quantitative cleavage of the expressed and purified zymogen to generate the processed and activated protease
